Experimental data reported in US20090202549A1.

Biological target: mouse IL-12 (p40/p35 heterodimer) (mouse) (UniProt P43432)
Assay: cell-based or functional assay

mouse IL-12 (p40/p35 heterodimer) (mouse), sequence (P43432 23-335, chain 1 of 2): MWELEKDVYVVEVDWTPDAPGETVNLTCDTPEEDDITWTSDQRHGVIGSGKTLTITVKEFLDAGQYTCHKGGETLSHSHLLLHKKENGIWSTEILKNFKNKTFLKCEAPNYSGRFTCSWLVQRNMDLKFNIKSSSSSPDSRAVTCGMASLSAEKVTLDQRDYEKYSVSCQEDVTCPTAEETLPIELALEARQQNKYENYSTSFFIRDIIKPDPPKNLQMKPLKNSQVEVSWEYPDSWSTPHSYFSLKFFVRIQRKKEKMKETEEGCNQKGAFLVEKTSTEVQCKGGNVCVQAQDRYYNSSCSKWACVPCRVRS
mouse IL-12 (p40/p35 heterodimer) (mouse), sequence (P43431 23-215, chain 2 of 2, further chain): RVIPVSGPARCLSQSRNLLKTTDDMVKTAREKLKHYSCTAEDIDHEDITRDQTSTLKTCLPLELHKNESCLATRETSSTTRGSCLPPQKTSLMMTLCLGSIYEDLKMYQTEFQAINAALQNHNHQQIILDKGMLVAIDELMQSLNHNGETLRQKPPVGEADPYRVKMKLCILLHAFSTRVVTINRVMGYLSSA

in vitro neutralization of IL-12 (times (against the anti-p35 mAb)): 5
Substance: C17.8 (rat anti-mouse IL-12/IL-23p40, IgG2a) (antibody)
